Each block holds one binder with its values, some of them ahead of it.
How the values were obtained:
[1] = target: cation-independent mannose-6-phosphate receptor (CI-M6PR), as used in the in vitro receptor binding assay (ELISA); test: in vitro CI-M6PR binding assay
[2] = target: cation-independent mannose-6-phosphate receptor (CI-M6PR), as used in the in vitro receptor binding assay (ELISA); test: ELISA, CI-M6PR binding, detection with antibody to human Naglu
[3] = target: cation-independent mannose-6-phosphate receptor (CI-M6PR) on cells overexpressing CI-M6PR; test: cellular uptake assay on cells overexpressing CI-M6PR, intracellular Naglu activity read-out

B1: Naglu-SapDC fusion protein (produced in HT-1080 cells) (enzyme)
chain: DEAREAAAVRALVARLLGPGPAADFSVSVERALAAKPGLDTYSLGGGGAARVRVRGSTGVAAAAGLHRYLRDFCGCHVAWSGSQLRLPRPLPAVPGELTEATPNRYRYYQNVCTQSYSFVWWDWARWEREIDWMALNGINLALAWSGQEAIWQRVYLALGLTQAEINEFFTGPAFLAWGRMGNLHTWDGPLPPSWHIKQLYLQHRVLDQMRSFGMTPVLPAFAGHVPEAVTRVFPQVNVTKMGSWGHFNCSYSCSFLLAPEDPIFPIIGSLFLRELIKEFGTDHIYGADTFNEMQPPSSEPSYLAAATTAVYEAMTAVDTEAVWLLQGWLFQHQPQFWGPAQIRAVLGAVPRGRLLVLDLFAESQPVYTRTASFQGQPFIWCMLHNFGGNHGLFGALEAVNGGPEAARLFPNSTMVGTGMAPEGISQNEVVYSLMAELGWRKDPVPDLAAWVTSFAARRYGVSHPDAGAAWRLLLRSVYNCSGEACRGHNRSPLVRRPSLQMNTSIWYNRSDVFEAWRLLLTSAPSLATSPAFRYDLLDLTRQAVQELVSLYYEEARSAYLSKELASLLRAGGVLAYELLPALDEVLASDSRFLLGSWLEQARAAAVSEAEADFYEQNSRYQLTLWGPEGNILDYANKQLAGLVANYYTPRWRLFLEALVDSVAQGIPFQQHQFDKNVFQLEQAFVLSKQRYPSQPRGDTVDLAKKIFLKYYPRWVAGSWGAPGGGGGAAAAAGGGGGGAPGGGGGAAAAAGGGGGGAPGGGGGAAAAAGGGGGGAPDGGFCEVCKKLVGYLDRNLEKNSTKQEILAALEKGCSFLPDPYQKQCDQFVAEYEPVLIEILVEVMDPSFVCLKIGACPSAHKPLLGTEKCIWGPSYWCQNTETAAQCNAVEHCKRHVWN
modifications: N-linked glycosylation site in the SapDC part marked (N); M6P content 0.75 mol/mol (M6P/Protein)
Kd [1]: 2.9 nM
Kd [2]: 5.5 nM
Kd [3]: 209 nM

B3: Naglu-CREG fusion protein (produced in HT-1080 cells) (enzyme)
chain: DEAREAAAVRALVARLLGPGPAADFSVSVERALAAKPGLDTYSLGGGGAARVRVRGSTGVAAAAGLHRYLRDFCGCHVAWSGSQLRLPRPLPAVPGELTEATPNRYRYYQNVCTQSYSFVWWDWARWEREIDWMALNGINLALAWSGQEAIWQRVYLALGLTQAEINEFFTGPAFLAWGRMGNLHTWDGPLPPSWHIKQLYLQHRVLDQMRSFGMTPVLPAFAGHVPEAVTRVFPQVNVTKMGSWGHFNCSYSCSFLLAPEDPIFPIIGSLFLRELIKEFGTDHIYGADTFNEMQPPSSEPSYLAAATTAVYEAMTAVDTEAVWLLQGWLFQHQPQFWGPAQIRAVLGAVPRGRLLVLDLFAESQPVYTRTASFQGQPFIWCMLHNFGGNHGLFGALEAVNGGPEAARLFPNSTMVGTGMAPEGISQNEVVYSLMAELGWRKDPVPDLAAWVTSFAARRYGVSHPDAGAAWRLLLRSVYNCSGEACRGHNRSPLVRRPSLQMNTSIWYNRSDVFEAWRLLLTSAPSLATSPAFRYDLLDLTRQAVQELVSLYYEEARSAYLSKELASLLRAGGVLAYELLPALDEVLASDSRFLLGSWLEQARAAAVSEAEADFYEQNSRYQLTLWGPEGNILDYANKQLAGLVANYYTPRWRLFLEALVDSVAQGIPFQQHQFDKNVFQLEQAFVLSKQRYPSQPRGDTVDLAKKIFLKYYPRWVAGSWGAPGGGGGAAAAAGGGGGGAPGGGGGAAAAAGGGGGGAPGGGGGAAAAAGGGGGGAPRGGRDHGDWDEASRLPPLPPREDAARVARFVTHVSDWGALATISTLEAVRGRPFADVLSLSDGPPGAGSGVPYFYLSPLQLSVSNLQENPYATLTMTLAQTNFCKKHGFPLCVHIMLSGTVTKVNETEMDIAKHSLFIRHPEMKTWPSSHNWFFAKLNITNIWVLDYFGGPKIVTPEEYYNVTVQ
modifications: N-linked glycosylation sites in the CREG part marked (N); binding is M6P-dependent
Kd [1]: 2.5 nM
Kd [2]: 1.25 nM

Now those with a lower Kd [1], led by results:

Kd [1]: 0.23 nM
Kd [3]: 14.9 nM
fold higher affinity than Naglu-SapDC produced in cells expressing Naglu-SapDC alone [3]: 14 fold
B2: Naglu-SapDC fusion protein produced in HT-1080 cells overexpressing GNPT (enzyme)
chain: B1 chain
modifications: increased M6P on N-linked glycans; M6P content 1.84 mol/mol (M6P/Protein)

Kd [1]: 0.41 nM
B4: Naglu-CREG fusion protein produced in HT-1080 cells overexpressing GNPT (enzyme)
chain: B3 chain
modifications: increased M6P on N-linked glycans (co-expression with GNPT)
